Among the data in the supplement of paper PMC10724198 are protein stability index values, retold here.

± gives the standard deviation of the averaged measurements.

The test system of this data set is Saccharomyces cerevisiae. The data set is described as follows: protein stability index of tFT-peptide fusion (C-terminal peptide) (PSI (0-1 scale)); higher = more stable (slower turnover). Particulars: temperature: 30 C. On the procedure:
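MPS profiling in S. cerevisiae of the yeast C-terminome library: the last 12 aa of each annotated ORF are fused to the C-terminus of a sfGFP-mCherry timer, after a GGGS linker. Cells are FACS-sorted into 8 mCherry/sfGFP bins and deep-sequenced. PSI runs from 0 (unstable) to 1 (stable); wild type and das1Δ backgrounds, two technical replicates each.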

Setting [1] is: genetic background: das1 deletion.

With KQGPKNLKKTKK [TAF13 C-terminal 12 aa], the protein stability index came out at 0.704 ± 0.0098 under setting [1] and 0.679 ± 0.0097 (genetic background: wild type).

As to KQQSWLRRVIGY [ENB1 C-terminal 12 aa], the protein stability index runs as follows: under setting [1], 0.696 ± 0.015; (genetic background: wild type) 0.688 ± 0.038.

Consider KQSKKKTSFTRF [YBL028C C-terminal 12 aa], for which the protein stability index amounted to 0.699 ± 0.036 under setting [1] and 0.66155 ± 0.00019 (genetic background: wild type).

With KRHLTPAVELDY [PRP40 C-terminal 12 aa], the protein stability index under setting [1] was found to be 0.671 ± 0.008 and the protein stability index (genetic background: wild type) came to 0.6566 ± 0.001.

As to KRKFLGEHRKTL [TOK1 C-terminal 12 aa], the protein stability index runs as follows: under setting [1], 0.713 ± 0.01; (genetic background: wild type) 0.67338 ± 0.00061.

With KRLIGIAEATLN [SEC31 C-terminal 12 aa], the protein stability index reads like this: under setting [1], 0.666 ± 0.032; (genetic background: wild type) 0.667 ± 0.014.

Consider KRNFCPFHDAVF [PIB1 C-terminal 12 aa], for which the protein stability index was 0.712 ± 0.01 under setting [1] and 0.716 ± 0.043 (genetic background: wild type).

As for “KRQGRTLYGFGG [YBR009C; YNL030W C-terminal 12 aa]”, the protein stability index runs as follows: under setting [1], 0.7013 ± 0.0062; (genetic background: wild type) 0.693 ± 0.021.

For KSGPEWIAENRD [TUM1 C-terminal 12 aa], the protein stability index turned out to be 0.716 ± 0.023 under setting [1] and 0.7166 ± 0.0051 (genetic background: wild type).

With KSLWDYVKKNTE [TAF14 C-terminal 12 aa], the protein stability index turned out to be 0.689 ± 0.046 under setting [1] and 0.712 ± 0.019 (genetic background: wild type).

Turning to KSTNCCLIYDST [KKQ8 C-terminal 12 aa], the protein stability index under setting [1] was 0.7052 ± 0.00093 and the protein stability index (genetic background: wild type) was 0.675 ± 0.036.

KSVVVRSKEKQS [GAA1 C-terminal 12 aa]: the protein stability index by setting is: under setting [1], 0.7002 ± 0.0014; (genetic background: wild type) 0.441 ± 0.014.

On to KTETLSVPRILT [YBR090C C-terminal 12 aa], for which the protein stability index by setting is: under setting [1], 0.689 ± 0.01; (genetic background: wild type) 0.722 ± 0.059.

For KTIDNLKALMKN [PFD1 C-terminal 12 aa], the protein stability index reads like this: under setting [1], 0.696 ± 0.0081; (genetic background: wild type) 0.721 ± 0.019.

KTLWSRFIEHFV [MIM2 C-terminal 12 aa] registered a protein stability index under setting [1] of 0.746 ± 0.022 and a protein stability index (genetic background: wild type) of 0.671 ± 0.023.

In the case of KTVGKLVLEIPQ [ZTA1 C-terminal 12 aa], the protein stability index runs as follows: under setting [1], 0.689 ± 0.033; (genetic background: wild type) 0.701 ± 0.051.

Regarding KTVIENPLEMLL [LAT1 C-terminal 12 aa], the protein stability index turned out to be 0.6972 ± 0.002 under setting [1] and 0.694 ± 0.025 (genetic background: wild type).

Sequence KVEFSKSETKTL [MSL1 C-terminal 12 aa] had a protein stability index under setting [1] of 0.71 ± 0.018 and a protein stability index (genetic background: wild type) of 0.6736 ± 0.0014.

KVHQGKYNGPGL [AI2 C-terminal 12 aa]: the protein stability index is 0.69085 ± 0.00022 under setting [1] and 0.727 ± 0.037 (genetic background: wild type).

Consider KVKRLMDFLEED [NSL1 C-terminal 12 aa], for which the protein stability index is 0.678 ± 0.0098 under setting [1] and 0.694 ± 0.024 (genetic background: wild type).

As for KWQARQRGLQRF [PMP1 C-terminal 12 aa], the protein stability index by setting is: under setting [1], 0.69535 ± 0.00066; (genetic background: wild type) 0.704 ± 0.018.

In the case of KWVGQYPVPGDI [SHM1 C-terminal 12 aa], the protein stability index by setting is: under setting [1], 0.693 ± 0.0071; (genetic background: wild type) 0.687 ± 0.04.

Take KYFADLTQSITK [YBR242W C-terminal 12 aa]: the protein stability index reads like this: under setting [1], 0.719 ± 0.051; (genetic background: wild type) 0.687 ± 0.029.

With LADSKHCSGLHK [ASF2 C-terminal 12 aa], the protein stability index turned out to be 0.6837 ± 0.0028 under setting [1] and 0.703 ± 0.0086 (genetic background: wild type).

LAFSGGLANSIA [DSE4 C-terminal 12 aa] gave a protein stability index under setting [1] of 0.712 ± 0.00097 and a protein stability index (genetic background: wild type) of 0.677 ± 0.024.

Consider LALYKKAYGIEF [STP2 C-terminal 12 aa], for which the protein stability index is, setting by setting: under setting [1], 0.686 ± 0.031; (genetic background: wild type) 0.6671 ± 0.0058.

Regarding LAPPPQKQSSSD [GRH1 C-terminal 12 aa], the protein stability index stood at 0.758 ± 0.058 under setting [1] and 0.729 ± 0.029 (genetic background: wild type).

Turning to “LASEAAVGCNKS [YKL156C-A C-terminal 12 aa]”, the protein stability index under setting [1] came out at 0.688 ± 0.0092 and the protein stability index (genetic background: wild type) came to 0.745 ± 0.055.

On to LASKHSQYTSPQ [RGT2 C-terminal 12 aa], for which the protein stability index under setting [1] came out at 0.72 ± 0.0086 and the protein stability index (genetic background: wild type) came out at 0.662 ± 0.014.

Regarding “LCMSCGYVSAGK [YMR173W-A C-terminal 12 aa]”, the protein stability index reads like this: under setting [1], 0.697 ± 0.016; (genetic background: wild type) 0.749 ± 0.046.

Take LDDIEKDLRANA [SWI4 C-terminal 12 aa]: the protein stability index turned out to be 0.7 ± 0.021 under setting [1] and 0.679 ± 0.012 (genetic background: wild type).

With LDISASLEKIAT [FMP52 C-terminal 12 aa], the protein stability index by setting is: under setting [1], 0.677 ± 0.018; (genetic background: wild type) 0.682 ± 0.011.

On to LECTPIINLFIV [MNL1 C-terminal 12 aa], for which the protein stability index was 0.644 ± 0.0069 under setting [1] and 0.13125 ± 2.3e-05 (genetic background: wild type).

As to LEDSTRVYSNLM [ARP1 C-terminal 12 aa], the protein stability index under setting [1] turned out to be 0.693 ± 0.007 and the protein stability index (genetic background: wild type) is 0.6835 ± 0.0043.

As for LEEELTKIGLLP [GRX8 C-terminal 12 aa], the protein stability index runs as follows: under setting [1], 0.706 ± 0.018; (genetic background: wild type) 0.698 ± 0.0098.

For LEKLLKTVLNTL [ORC2 C-terminal 12 aa], the protein stability index reads like this: under setting [1], 0.69009 ± 0.00049; (genetic background: wild type) 0.696 ± 0.028.

Consider LENTLKDSGVLQ [GPA2 C-terminal 12 aa], for which the protein stability index under setting [1] was determined as 0.692 ± 0.002 and the protein stability index (genetic background: wild type) was 0.717 ± 0.047.

On to LESADKKKDVKA [DUS1 C-terminal 12 aa], for which the protein stability index by setting is: under setting [1], 0.692 ± 0.0088; (genetic background: wild type) 0.713 ± 0.015.

As to LETDQDFLDGLL [YER034W C-terminal 12 aa], the protein stability index came out at 0.708 ± 0.021 under setting [1] and 0.695 ± 0.0081 (genetic background: wild type).

As to LEVTTKPREWVK [HEM13 C-terminal 12 aa], the protein stability index reads like this: under setting [1], 0.687 ± 0.018; (genetic background: wild type) 0.712 ± 0.069.

Consider “LFSSRNTVCAPY [YIL134C-A C-terminal 12 aa]”, for which the protein stability index stood at 0.7258 ± 0.0047 under setting [1] and 0.727 ± 0.018 (genetic background: wild type).

Consider LFSVLVALLALL [CRH1 C-terminal 12 aa], for which the protein stability index was 0.661 ± 0.037 under setting [1] and 0.48 ± 0.017 (genetic background: wild type).

For the sequence LGSSMVQGRSIR [YPK1 C-terminal 12 aa], the protein stability index runs as follows: under setting [1], 0.71 ± 0.024; (genetic background: wild type) 0.661 ± 0.0085.

As to LHMNTNRLAGIR [SEC9 C-terminal 12 aa], the protein stability index by setting is: under setting [1], 0.7133 ± 0.0013; (genetic background: wild type) 0.718 ± 0.018.

Regarding LHTLYLRPASAI [SSN8 C-terminal 12 aa], the protein stability index reads like this: under setting [1], 0.701 ± 0.021; (genetic background: wild type) 0.669 ± 0.03.

Take LIDVVPRRPLPQ [HAP5 C-terminal 12 aa]: the protein stability index is, setting by setting: under setting [1], 0.734 ± 0.033; (genetic background: wild type) 0.723 ± 0.03.

Regarding LIWELGDGQSGQ [INO4 C-terminal 12 aa], the protein stability index came out at 0.7444 ± 0.0017 under setting [1] and 0.7182 ± 0.0015 (genetic background: wild type).

Take LKALANETMSRI [VPS16 C-terminal 12 aa]: the protein stability index by setting is: under setting [1], 0.712 ± 0.011; (genetic background: wild type) 0.706 ± 0.049.

Sequence LKRISDIQADSS [PET494 C-terminal 12 aa] registered a protein stability index under setting [1] of 0.692 ± 0.031 and a protein stability index (genetic background: wild type) of 0.6987 ± 0.0012.

Consider LKSLKKNLTRDR [MTF2 C-terminal 12 aa], for which the protein stability index is, setting by setting: under setting [1], 0.722 ± 0.033; (genetic background: wild type) 0.6605 ± 0.0051.

For LKSQSLTTGWSL [MNS1 C-terminal 12 aa], the protein stability index by setting is: under setting [1], 0.7194 ± 0.0048; (genetic background: wild type) 0.741 ± 0.058.

Regarding LLCSDLVNGLMQ [SEC21 C-terminal 12 aa], the protein stability index is 0.706 ± 0.029 under setting [1] and 0.707 ± 0.0075 (genetic background: wild type).

Take LLDGGDGDEDAV [GON7 C-terminal 12 aa]: the protein stability index runs as follows: under setting [1], 0.6942 ± 0.002; (genetic background: wild type) 0.7 ± 0.036.

Turning to “LLEAFLRKEQKV [YGR174W-A C-terminal 12 aa]”, the protein stability index runs as follows: under setting [1], 0.596 ± 0.012; (genetic background: wild type) 0.619 ± 0.019.

For the sequence LLEDQVPVETKA [PYC1 C-terminal 12 aa], the protein stability index by setting is: under setting [1], 0.551 ± 0.018; (genetic background: wild type) 0.582 ± 0.0095.

LLEKLDIKDKKE [YVC1 C-terminal 12 aa]: the protein stability index turned out to be 0.661 ± 0.018 under setting [1] and 0.703 ± 0.024 (genetic background: wild type).

Consider LLISMIAAGILL [GAS2 C-terminal 12 aa], for which the protein stability index reads like this: under setting [1], 0.5322 ± 0.0015; (genetic background: wild type) 0.551 ± 0.017.

For LLKQLKQGKISV [NOT3 C-terminal 12 aa], the protein stability index was 0.669 ± 0.022 under setting [1] and 0.6481 ± 0.0033 (genetic background: wild type).

Regarding LLLGTVSATNAI [YPL062W C-terminal 12 aa], the protein stability index is, setting by setting: under setting [1], 0.6878 ± 0.004; (genetic background: wild type) 0.706 ± 0.038.

Turning to LLPGNTNLPWTS [ERG12 C-terminal 12 aa], the protein stability index runs as follows: under setting [1], 0.7093 ± 0.0045; (genetic background: wild type) 0.742 ± 0.08.

Regarding LLQVYDRVKASM [TOP3 C-terminal 12 aa], the protein stability index is 0.67 ± 0.00086 under setting [1] and 0.5992 ± 0.0013 (genetic background: wild type).

Sequence “LLRPPKPPLFCC [YGL123C-A C-terminal 12 aa]” had a protein stability index under setting [1] of 0.6368 ± 0.0044 and a protein stability index (genetic background: wild type) of 0.418 ± 0.032.

As for LLRPRSPVQKAQ [KAR4 C-terminal 12 aa], the protein stability index by setting is: under setting [1], 0.69 ± 0.025; (genetic background: wild type) 0.658 ± 0.064.

In the case of LLVEKKDIPSNS [PRM4 C-terminal 12 aa], the protein stability index reads like this: under setting [1], 0.6965 ± 0.001; (genetic background: wild type) 0.675 ± 0.013.

On to LLYCNIYVYYRF [KAR1 C-terminal 12 aa], for which the protein stability index was 0.15 ± 0.014 under setting [1] and 0.161 ± 0.0022 (genetic background: wild type).

Consider LMRRFVLEFEKQ [SEC6 C-terminal 12 aa], for which the protein stability index by setting is: under setting [1], 0.716 ± 0.0098; (genetic background: wild type) 0.726 ± 0.021.

As for LNEKESTKLFYR [ELP6 C-terminal 12 aa], the protein stability index was determined as 0.6871 ± 0.002 under setting [1] and 0.701 ± 0.013 (genetic background: wild type).
